The values that follow come from article PMC9171807 (Proceedings of the National Academy of Sciences of the …, 2022).

Positions count from the first letter of the chain named.

For assay [1], the target named is T1, 17-residue MSLN C terminus peptide (human).
T1 chain: IPNGYLVLDLSMQEALS
Nature of the assay: crystal structure.

Another assay concerns the target MSLN 296 to 591 (Homo sapiens (Human)., UniProt Q13421-3). Nature of the assay: BLI. On the technique in general: Biolayer interferometry detects binding as a change in optical thickness at a sensor tip.
The target of the next assay is MSLN–585-his (Homo sapiens (Human)., UniProt Q13421-3). Kind of assay: ELISA. For orientation: An ELISA detects its analyte on a solid surface through an enzyme-linked reagent.

B1: Fab fragment of mAb 15B6 (Fab, V domains shown)
VH: EVQLQQSGPVLVKPGASVKISCKASGYSFTGYYMHWVRQSNGKSLEWIGRINPYTGVPSYKHNFKDKASLTVDKSSSTAYMELHSLTSEDSAVYYCARELGGYWGQGTTLTVSS
VL: QAVVTQESALTTSPGETVTLTCRSSTGAVTTGNYPNWVQEKPDHLFTGLIAGTNNRAPGVPARFSGSLIGDKAALTITGAQTEDEAIYFCALWFSSHWVFGGGTKLTVL
Consider B1, for which the binding result in assay [1] is “binds”; with MSLN 296 to 591, “no binding”.

B2: monoclonal antibody (mAb) 15B6 (antibody, V domains shown)
VH: B1 VH with N41L, G42V, S44R
VL: B1 VL
Turning to B2, the binding result with MSLN–585-his was “no binding”.
